B1: CDC25B (parent)
chain: ELKTFRLKTRSWAGERSRRELCSR
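Note: lentivirally expressed fusions sorted by FACS into six bins by GFP to DsRed ratio, PSI derived from sequencing read proportions per bin multiplied by bin number.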

Variants of: B1
Experiment: protein stability index of a GFP-peptide fusion (GPS, HEK-293T) (PSI 1-6); higher = more stable
Settings: c terminus: a fixed tail appended
In the case of ELKTFRLKTRSWAGERSCRELCSR, the protein stability index is reported as 2.23. Work on ELKTFRLKTRSWAGERSKRELCSR yielded a protein stability index of 3.36. ELKTFRLKTRSWAGERSDRELCSR gave a protein stability index of 3.4. For ELKTFRLKTRSWAGERSQRELCSR, the protein stability index was 4.01. ELKTFRLKTRSWAGERSTRELCSR showed a protein stability index of 3.38. In the case of ELKTFRLKTRSWAGERSMRELCSR, the protein stability index is reported as 3.36. Variant ELKTFRLKTRSWAPERSRRELCSR has a protein stability index of 2.25. In the case of ELKTFRLKTRSWASERSRRELCSR, the protein stability index is reported as 2.39. With ELKTFRLKTRSWALERSRRELCSR the protein stability index was 2.61. In the case of ELKTFRLKTRSWAWERSRRELCSR, the protein stability index is reported as 3.23. For ELKTFRLKTRSWAKERSRRELCSR, the protein stability index was 2.7. In the case of ELKTFRLKTRSWAYERSRRELCSR, the protein stability index is reported as 2.05. ELKTFRLKTRSWAQERSRRELCSR gave a protein stability index of 2.58. Variant ELKTFRLKTRSWARERSRRELCSR has a protein stability index of 2.73. ELKTFRLKTRSWANERSRRELCSR showed a protein stability index of 2.48. Work on ELKTFRLKTRSWAMERSRRELCSR yielded a protein stability index of 2.66. Work on ELKTFRLKTRSWAVERSRRELCSR yielded a protein stability index of 2.19. ELKTFRLKTRSWATERSRRELCSR gave a protein stability index of 3.53. ELKTFRLKTRSWAGERSRRHLCSR gave a protein stability index of 3.52. For ELKTFRLKTRSWAGERSRRSLCSR, the protein stability index was 2.92. Work on ELKTFRLKTRSWAGERSRRRLCSR yielded a protein stability index of 2.78. In the case of ELKTFRLKTRSWAGERSRRWLCSR, the protein stability index is reported as 2.57. Variant ELKTFRLKTRSWAGERSRRDLCSR has a protein stability index of 2.98. Work on ELKTFRLKTRSWAGERSRRYLCSR yielded a protein stability index of 2.69. ELKTFRLKTRSWAGERSRRQLCSR showed a protein stability index of 3.53. For ELKTFRLKTRSWAGERSRRMLCSR, the protein stability index was 3.25. Work on ELKTFRLKTRSWAGERSRRVLCSR yielded a protein stability index of 2.9. ELKTFRLKTRSWAGERSRRNLCSR showed a protein stability index of 3.42. In the case of ELKTFRLKTRSWAGERSRRALCSR, the protein stability index is reported as 3.25. ELKTFRLKTRSWAGERSRRGLCSR showed a protein stability index of 2.65. For ELKTFRLKTRSWAGERSRRFLCSR, the protein stability index was 2.52. Work on ELKTFRLKTRSWAGERSRRLLCSR yielded a protein stability index of 2.42. In the case of ELKTFRLKTRSWAGERSRRILCSR, the protein stability index is reported as 2.66. For ELKTFRLKTRSWAGERSRRPLCSR, the protein stability index was 3.08. For ELKTFRLKTRSWAGERSRRCLCSR, the protein stability index was 2.72. For ELKTFRLKTRSWAGERSRRKLCSR, the protein stability index was 3.47. ELKTFRLKTRSWAGERSRRTLCSR gave a protein stability index of 2.88. With ELKTFRLKTRSWAGERSRKELCSR the protein stability index was 3.26. Work on ELKTFRLKTRSWAGERSRCELCSR yielded a protein stability index of 2.25. With ELKTFRLKTRSWAGERSRGELCSR the protein stability index was 3.46. ELKTFRLKTRSWAGERSRMELCSR showed a protein stability index of 3. ELKTFRLKTRSWAGERSRFELCSR gave a protein stability index of 2.49. ELKTFRLKTRSWAGERSRTELCSR gave a protein stability index of 2.57. For ELKTFRLKTRSWAGERSRYELCSR, the protein stability index was 3.51. ELKTFRLKTRSWAGERSRWELCSR showed a protein stability index of 2.02. With ELKTFRLKTRSWAGERSRQELCSR the protein stability index was 3.45. With ELKTFRLKTRSWAGERSRIELCSR the protein stability index was 2.57. ELKTFRLKTRSWAGERSRDELCSR gave a protein stability index of 2.88. ELKTFRLKTRSWAGERSRNELCSR gave a protein stability index of 3.38. ELKTFRLKTRSWAGERSRVELCSR showed a protein stability index of 2.74. ELKTFRLKTRSWAGERSRAELCSR showed a protein stability index of 4.2. Work on ELKTFRLKTRSWAGERSRHELCSR yielded a protein stability index of 3.13. Variant ELKTFRLKTRSWAGERSRPELCSR has a protein stability index of 2.98. Work on ELKTFRLKTRSWAGERSREELCSR yielded a protein stability index of 3.66. With ELKTFRLKTRSWAGERSRLELCSR the protein stability index was 3.2. With ELKTFRLKTRSWAGERSRSELCSR the protein stability index was 3.28. Variant ELKTFRLKTRSWAGERSRRELVSR has a protein stability index of 3.54. Variant ELKTFRLKTRSWAGERSRRELDSR has a protein stability index of 3.27. With ELKTFRLKTRSWAGERSRRELRSR the protein stability index was 4.04. ELKTFRLKTRSWAGERSRRELSSR showed a protein stability index of 3.25. ELKTFRLKTRSWAGERSRRELHSR showed a protein stability index of 3.42. Variant ELKTFRLKTRSWAGERSRRELFSR has a protein stability index of 3.01. In the case of ELKTFRLKTRSWAGERSRRELWSR, the protein stability index is reported as 2.89. Variant ELKTFRLKTRSWAGERSRRELKSR has a protein stability index of 3.57. With ELKTFRLKTRSWAGERSRRELMSR the protein stability index was 2.96. Work on ELKTFRLKTRSWAGERSRRELASR yielded a protein stability index of 3.36. With ELKTFRLKTRSWAGERSRRELLSR the protein stability index was 2.79. In the case of ELKTFRLKTRSWAGERSRRELYSR, the protein stability index is reported as 2.6. For ELKTFRLKTRSWAGERSRRELPSR, the protein stability index was 3.01. ELKTFRLKTRSWAGERSRRELNSR gave a protein stability index of 4.04. Work on ELKTFRLKTRSWAGERSRRELGSR yielded a protein stability index of 4.06. With ELKTFRLKTRSWAGERSRRELISR the protein stability index was 3.33. Work on ELKTFRLKTRSWAGERSRRELESR yielded a protein stability index of 3.65. ELKTFRLKTRSWAGERSRRELTSR showed a protein stability index of 3.48. Variant ELKTFRLKTRSWAGERSRRELQSR has a protein stability index of 3.26. ELKTFRLKTRSWAGERSRRELCQR showed a protein stability index of 3.39. Variant ELKTFRLKTRSWAGERSRRELCRR has a protein stability index of 2.87. Work on ELKTFRLKTRSWAGERSRRELCCR yielded a protein stability index of 3.05. With ELKTFRLKTRSWAGERSRRELCAR the protein stability index was 3.02. For ELKTFRLKTRSWAGERSRRELCGR, the protein stability index was 3.44. With ELKTFRLKTRSWAGERSRRELCHR the protein stability index was 3.13. ELKTFRLKTRSWAGERSRRELCVR gave a protein stability index of 2.25. In the case of ELKTFRLKTRSWAGERSRRELCER, the protein stability index is reported as 3.53. Variant ELKTFRLKTRSWAGERSRRELCWR has a protein stability index of 2.69. With ELKTFRLKTRSWAGERSRRELCIR the protein stability index was 2.95. For ELKTFRLKTRSWAGERSRRELCTR, the protein stability index was 3.89. Work on ELKTFRLKTRSWAGERSRRELCPR yielded a protein stability index of 3.26. Variant ELKTFRLKTRSWAGERSRRELCLR has a protein stability index of 3.35. Variant ELKTFRLKTRSWAGERSRRELCDR has a protein stability index of 4.21. ELKTFRLKTRSWAGERSRRELCMR showed a protein stability index of 3.26. ELKTFRLKTRSWAGERSRRELCKR gave a protein stability index of 3.62. With ELKTFRLKTRSWAGERSRRELCFR the protein stability index was 3.03. ELKTFRLKTRSWAGERSRRELCNR showed a protein stability index of 3.8. With ELKTFRLKTRSWAGERSRRELCYR the protein stability index was 3.83.

— the supplement of paper PMC10567573
